This data set concerns MS2 coat protein. Briefly: apparent KD of MS2 coat protein; higher = weaker reporter binding. Particulars: Eterna round: R107. An outline of the steps:
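Designed RNA switches were transcribed on-chip from Illumina sequencing clusters and titrated with SNAP-549-labelled MS2 coat protein in twofold steps from 0.7 or 1.5 nM up to 3 µM. Each step lasted 0.8–1.5 h at first and 10–20 min by the end, in 100 mM Tris-HCl pH 7.5, 80 mM KCl and 4 mM MgCl2, without or with constant ligand. Apparent KD is the median, for each design, of fits to normalised cluster binding curves.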

[1] abbreviates: input ligand: theophylline 20 uM.
Setting [2] is: input ligand: theophylline 2 mM.
Where [3] appears, read: input ligand: tryptophan 2.4 mM.

As to “CACGAAAGAUCGGCCGCCACUAAUCUAUGUGUUCUUUCACAUGAGGAUCACCCAUGUUCUUGCGUUAGGACCGGGAUUGAGCGUG [#02 Exclusion Tryptophan B]”, the “apparent KD of MS2 coat protein” value (input ligand: arginine 13.2 mM) was found to be 29.9 nM, the “apparent KD of MS2 coat protein” value under setting [1] stood at 39.7 nM and the “apparent KD of MS2 coat protein” value under setting [2] stood at 36.6 nM.
Turning to “CACGAAAGAUCGGCCGCCACUAUUUGAUGUGUUCUUUCACAUGAGGAUCACCCAUGUUCUUAUUAUAGGACCGGGAUUGAGCGUG [ETB #3]”, the “apparent KD of MS2 coat protein” value (input ligand: arginine 13.2 mM) turned out to be 73.9 nM, the “apparent KD of MS2 coat protein” value under setting [1] was 141 nM and the “apparent KD of MS2 coat protein” value under setting [2] was determined as 190 nM.
Taken in the same sequence, the figures for “CACGAAAGAUCGGCCGCCACUCAUGUAGCUUACAUGAGGAUCACCCAUGUAUUUUCUUUCUUUUAGAGGACCGGGAUCGAGCGUG [#02 Same State - Tryptophan B]” were 33.6 nM, 65.2 nM and 43.5 nM.
Taken in the same sequence, the figures for “CACGAAAGAUCGGCCGCCACUCAUGUUUCUUACAUGAGGAUCACCCAUGUAUUUUCUUUCUUUUAGAGGACCGGGAUUGAGCGUG [SSTB #1]” were 117 nM, 197 nM and 199 nM.
As to “CACGAUUUGUCGGCCGCCACUAAGGUAACUCUUCUCACAUGAGGAUCACCCAUGUGCCCGAAGCUUAGGACCGGGAUAAUGGGUG [Dieson]”, the “apparent KD of MS2 coat protein” value is, setting by setting: (input ligand: arginine 13.2 mM) 32.3 nM; under setting [1], 150 nM; under setting [2], 288 nM.
For the sequence “CACGGACGAGUGGAUCACCCUCGUAAUAACCGAGGACCGGUACGGCCGCCACUCGAAAACCGUGACCUGUACGAAAAGUGCAGGA”, the “apparent KD of MS2 coat protein” value reads like this: (input ligand: arginine 13.2 mM) 56.1 nM; (input ligand: none) 88.7 nM; under setting [1], 210 nM; under setting [2], 531 nM; under setting [3], 73.2 nM.
Consider “CACGGAUGAGUGGAUCACCCUCGUAAUAACCGAGGACCGGUACGGCCGCCACUCGAAAACCGUGACCUGUACGAAAAGUGCAGGA”, for which the “apparent KD of MS2 coat protein” value (input ligand: arginine 13.2 mM) was 56.7 nM; the “apparent KD of MS2 coat protein” value (input ligand: none) was 36.5 nM; the “apparent KD of MS2 coat protein” value under setting [1] worked out at 399 nM; the “apparent KD of MS2 coat protein” value under setting [2] stood at 1500 nM; the “apparent KD of MS2 coat protein” value under setting [3] is 39.8 nM.
With “CAGCCUGGUUGGUAAAUCCCUCAUCGUGAUACCAGUCGAGUGAUCGACCCUUGGCAGCACAUGAGGAUCACCCAUGUGCUCGUAU [Diorqu]”, the “apparent KD of MS2 coat protein” value (input ligand: arginine 13.2 mM) worked out at 18.6 nM, the “apparent KD of MS2 coat protein” value under setting [1] was 31.1 nM and the “apparent KD of MS2 coat protein” value under setting [3] was 17.9 nM.
In the case of “CAGGUGCAGUCAGAUACCAGAUCUGCACAUGAGGAUCACCCAUGUGUAAUGAGUUCAAAGAUCCCUUGGCAGCUGUGUGAUCCGA [Onbidibe]”, the “apparent KD of MS2 coat protein” value (input ligand: arginine 13.2 mM) stood at 81.1 nM, the “apparent KD of MS2 coat protein” value under setting [1] was found to be 210 nM and the “apparent KD of MS2 coat protein” value under setting [3] was 96.3 nM.
In the case of “CAGUCAGUCAGUCAAUGAGUGAGCCAUGAAGGAGCGUGGGAAACCACAGGUAGGUCGCAUGGGAAACAUGAGGAUCACCCAUGUU [SSArg A #2]”, the “apparent KD of MS2 coat protein” value reads like this: (input ligand: arginine 13.2 mM) 27.5 nM; (input ligand: none) 25.5 nM; under setting [1], 36.9 nM; under setting [2], 36.2 nM; under setting [3], 28.2 nM.
For the sequence “CAUACUUUAGUAUGUUAUGUGGACAGUGAUACCAGAUACGAAAGUAUCCCUUGGCAGCACAACAUGAGGAUCACCCAUGUAAUUU [Theophylline A 5]”, the “apparent KD of MS2 coat protein” value is 24.4 nM (input ligand: arginine 13.2 mM), 24.8 nM under setting [1] and 28.2 nM under setting [3].
As to “CAUCGUCGGUCGGCCGCCACUACUGGACAUGAGGAUCACCCAUGUGGCCCGCUGUAUUAACCGCGUAGGACCGGGACGGGAGGUA [theeternabot_exclusion_MS2_Trp_B_4]”, the “apparent KD of MS2 coat protein” value reads like this: (input ligand: arginine 13.2 mM) 24 nM; under setting [1], 48.6 nM; under setting [2], 39.3 nM.
For the sequence “CAUGAAGUAACUGAUACCAGUGUACUGACAUGAGGAUCACCCAUGUUGGGUUUUGUUGUACACCCUUGGCAGCAGAAUCUUUAUG [AstrosExyTheB#4]”, the “apparent KD of MS2 coat protein” value by setting is: (input ligand: arginine 13.2 mM) 50 nM; under setting [1], 70.8 nM; under setting [3], 58.5 nM.
Taken in the same sequence, the figures for “CCAAGCAUAAUAGAUACCAGUCGUAUACCUCCAACAUGAGGAUCACCCAUGUGCUCAGUUGACCCUUGGCAGCUAUGCCUAUAGA [theeternabot_sameState_MS2_Theo_B_1]” were 37.4 nM, 53.3 nM and 38.2 nM.
Take “CCACAUGAGGAUCACCCAUGUAUAGUUGAAGGAGCGAUCAUUAGGUCAGGUAGGUCGCAGCACAUGAGGAUCACCCAUGUCGAAA [DOUBLE!!! :-D #3]”: the “apparent KD of MS2 coat protein” value (input ligand: arginine 13.2 mM) came to 41.2 nM; the “apparent KD of MS2 coat protein” value (input ligand: none) is 64.8 nM; the “apparent KD of MS2 coat protein” value under setting [1] was 60.9 nM; the “apparent KD of MS2 coat protein” value under setting [2] worked out at 72.8 nM; the “apparent KD of MS2 coat protein” value under setting [3] was determined as 58.4 nM.
On to “CCACUUUCUUUUAUCUUUCUUUCUUUGUUACGAGGACCGGUACGGCCGCCACUCGUGGUGUGUGGUACAUGAGGAUCACCCAUGU”, for which the “apparent KD of MS2 coat protein” value is, setting by setting: (input ligand: arginine 13.2 mM) 23.1 nM; under setting [1], 34.9 nM; under setting [2], 32.9 nM.
As to “CCAUAAGUAACUGAUACCAGUGUACUGACAUGAGGAUCACCCAUGUUGGGUUUUGUUGUACACCCUUGGCAGCAGAAUCUUGUGG [AstrosExyTheB#16]”, the “apparent KD of MS2 coat protein” value came to 43.9 nM (input ligand: arginine 13.2 mM), 70.1 nM under setting [1] and 54.3 nM under setting [3].
As to “CCCAAAUAGAUCAAAGGAAUUAUACUCGAAGGAGCGUCAUAGUAGGCAGGUAGGUCGCGAGACAUGAGGAUCACCCAUGUAGAGA [sssmullin]”, the “apparent KD of MS2 coat protein” value turned out to be 33.3 nM (input ligand: arginine 13.2 mM); 51.9 nM (input ligand: none); 45.6 nM under setting [1]; 57.2 nM under setting [2]; 34.9 nM under setting [3].

For the origin of these results see the supplement of paper PMC9170038.
